Measurements from doi:10.1101/2022.11.28.518166, “The direct interaction with transcriptional factor TEAD4 implied a straightforward regulation mechanism of tumor suppressor NF2” (bioRxiv, 2022).
Substitutions are numbered along the chain they refer to. Names and notes keep the numbering of the source.

B1: TEAD4 YBD domain (217-434) with N-terminal SUMO and 6xHis tag (domain or fragment, human, UniProt Q15561 217-434, looked up)
chain: RSVASSKLWMLEFSAFLEQQQDPDTYNKHLFVHIGQSSPSYSDPYLEAVDIRQIYDKFPEKKGGLKDLFERGPSNAFFLVKFWADLNTNIEDEGSSFYGVSSQYESPENMIITCSTKVCSFGKQVVEKVETEYARYENGHYSYRIHRSPLCEYMINFIHKLKHLPEKYMMNSVLENFTILQVVTNRDTQETLLCIAYVFEVSASEHGAQHHIYRLVKE
notes: Detected in the pull-downs with an antibody against 6xHis; also called SUMO-TEAD4; SUMO-tagged TEAD4-YBD; source: Escherichia coli BL21 (DE3), purified (Ni-NTA, Superdex 200); not shown: SUMO, N-terminal, kept; His6, N-terminal, kept
B2: TEAD4-2CS (C335S/C367S), non-palmitoylated mutant of TEAD4-YBD (domain or fragment, human, UniProt Q15561 217-434, looked up)
chain: B1 chain with C119S, C151S
notes: TEAD4, human, YBD, residues 217-434 as TEAD4-YBDHis, with C335S and C367S; source: recombinant; not shown: His6, N-terminal, kept
B3: GST-NF2-507-595 WT (domain or fragment, UniProt P35240 507-595, looked up)
chain: FDFKDTDMKRLSMEIEKEKVEYMEKSKHLQEQLNELKTEIEALKLKERETALDILHNENSDRGGSSKHNTIKKLTLQSAKSRVAFFEEL
B4: GST-YAP 47-131 (domain or fragment, UniProt P46937 47-131, looked up)
chain: APPAGHQIVHVRGDSETDLEALFNAVMNPKTANVPQTVPMRLRKLPDSFFKPPEPKSHSRQASTDAGTAGALTPQHVRAHSSPAS
notes: YAP (Yes-associated protein), residues 47-131

Assays:
Conditions in all cases: both partners purified
MBP-NF2 (18-595) WT = target: T1, MBP-NF2 (18-595) WT (UniProt P35240 18-595); test: pull-down; MBP-NF2 bound to MBP resin in PBS 1 h at 4 °C, incubated with purified SUMO-TEAD4 in PBS 1 h at 4 °C, washed four times; SDS-PAGE and anti-6xHis blot
T1 construct: also called MBP-NF2 WT; MBP-NF2 FL; source: purified (amylose resin, Superdex 200); not shown: MBP, N-terminal, kept
T1 sequence (looked up): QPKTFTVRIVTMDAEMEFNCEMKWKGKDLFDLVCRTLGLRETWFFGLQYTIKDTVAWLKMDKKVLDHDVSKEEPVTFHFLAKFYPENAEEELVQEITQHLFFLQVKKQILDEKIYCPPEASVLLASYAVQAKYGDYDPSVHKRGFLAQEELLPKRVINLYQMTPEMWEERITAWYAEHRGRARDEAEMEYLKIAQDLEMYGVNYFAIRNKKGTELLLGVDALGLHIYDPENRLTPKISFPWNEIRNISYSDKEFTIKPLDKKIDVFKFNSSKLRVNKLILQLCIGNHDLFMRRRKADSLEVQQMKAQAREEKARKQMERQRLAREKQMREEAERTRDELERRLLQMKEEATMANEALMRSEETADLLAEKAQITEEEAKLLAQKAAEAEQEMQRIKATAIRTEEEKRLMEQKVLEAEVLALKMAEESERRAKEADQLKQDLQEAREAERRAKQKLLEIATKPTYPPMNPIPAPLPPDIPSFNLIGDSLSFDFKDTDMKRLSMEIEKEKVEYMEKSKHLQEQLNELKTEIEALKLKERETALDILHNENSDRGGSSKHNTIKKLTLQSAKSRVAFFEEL

MBP-NF2 A585W mutant = target: T2, MBP-NF2 A585W mutant (UniProt P35240 18-595, A585W); test: as above
T2 construct: source: purified as MBP-NF2; not shown: MBP, N-terminal, kept
T2 sequence (looked up): T1 sequence (looked up) with A568W

[1] = target: T3, full-length NF2 with GST tag (UniProt P35240 1-595); test: pull-down; GST-NF2 (full length, truncations) bound to GST resin in PBS 1 h at 4 °C, incubated with purified SUMO-TEAD4 in PBS 1 h at 4 °C, washed four times; SDS-PAGE and anti-6xHis blot; in Figure 2C with or without co-incubated FERM domain
T3 construct: NF2 (Merlin), full length; also called GST-NF2; GST-NF2-FL; source: Escherichia coli, purified
T3 sequence (looked up): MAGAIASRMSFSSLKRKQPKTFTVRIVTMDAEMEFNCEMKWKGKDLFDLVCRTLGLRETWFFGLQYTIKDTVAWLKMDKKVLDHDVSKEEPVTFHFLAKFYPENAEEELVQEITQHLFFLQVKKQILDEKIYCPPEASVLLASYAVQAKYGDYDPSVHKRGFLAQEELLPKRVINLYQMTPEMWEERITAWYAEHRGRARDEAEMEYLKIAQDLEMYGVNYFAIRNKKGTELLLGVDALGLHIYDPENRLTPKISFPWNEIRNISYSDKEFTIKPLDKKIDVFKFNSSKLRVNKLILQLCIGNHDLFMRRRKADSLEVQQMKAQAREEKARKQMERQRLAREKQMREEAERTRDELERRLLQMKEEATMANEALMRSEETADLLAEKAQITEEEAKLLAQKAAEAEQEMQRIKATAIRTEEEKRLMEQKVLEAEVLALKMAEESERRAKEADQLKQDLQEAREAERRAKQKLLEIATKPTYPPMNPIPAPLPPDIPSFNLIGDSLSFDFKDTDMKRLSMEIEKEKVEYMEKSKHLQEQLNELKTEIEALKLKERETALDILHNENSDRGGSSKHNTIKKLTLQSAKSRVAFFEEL

[2] = target: T4, GST-NF2 N-terminal FERM domain (1-341 aa) (UniProt P35240 1-341); test: as above
T4 construct: also called GST-NF2-FERM WT
T4 sequence (looked up): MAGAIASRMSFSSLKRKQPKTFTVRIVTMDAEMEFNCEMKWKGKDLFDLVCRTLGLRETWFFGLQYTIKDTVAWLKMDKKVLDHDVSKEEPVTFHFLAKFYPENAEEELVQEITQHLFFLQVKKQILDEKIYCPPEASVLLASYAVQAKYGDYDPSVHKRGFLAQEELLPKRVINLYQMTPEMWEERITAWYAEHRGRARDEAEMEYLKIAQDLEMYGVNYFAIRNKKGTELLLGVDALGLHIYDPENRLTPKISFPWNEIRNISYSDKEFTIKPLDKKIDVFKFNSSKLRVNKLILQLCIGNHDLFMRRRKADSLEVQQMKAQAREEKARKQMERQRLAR

[3] = target: T5, GST-NF2 C-terminal half (342-595 aa) (UniProt P35240 342-595); test: as above
T5 sequence (looked up): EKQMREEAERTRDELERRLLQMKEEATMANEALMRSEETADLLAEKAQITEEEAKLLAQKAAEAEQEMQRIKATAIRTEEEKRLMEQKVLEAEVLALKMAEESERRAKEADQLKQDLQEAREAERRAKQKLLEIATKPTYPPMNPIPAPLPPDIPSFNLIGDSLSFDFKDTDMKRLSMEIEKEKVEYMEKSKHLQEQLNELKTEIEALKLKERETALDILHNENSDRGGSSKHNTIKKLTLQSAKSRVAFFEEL

[4] = target: B1; test: as above
[5] = target: B1; test: pull-down; in vitro competitive binding assay: YAP-TEAD4 complex on GST-YAP with a dose addition of NF2; SDS-PAGE

B1
binding result (MBP-NF2 (18-595) WT): binds
binding result (MBP-NF2 A585W mutant): binds
binding result [1]: binds
binding result [2]: binds
binding result [3]: binds

B2
binding result (MBP-NF2 (18-595) WT): binds

KLKERETALDILHNENSDRGGSSKHNTIKKLTLQSAKSRVAFFEEL (domain or fragment, UniProt P35240 550-595, looked up, also called C-terminal tail) [GST-NF2 tail region (C-tail, 550-595 aa)]
binding result [4]: binds

B3
binding result [4]: binds

B4
binding result [5]: binds
